Results as given in PMC4759549.

Key:
[1] = molecular target: STY3178, a yfdX protein from Salmonella Typhi (Salmonella Typhi (CT18)); test: NMR relaxation (1D 1H-15N T1 and T2, rotational correlation time)
[2] = molecular target: STY3178, a yfdX protein from Salmonella Typhi (Salmonella Typhi (CT18)); test: SEC

Substance: STY3178, a yfdX protein from Salmonella Typhi (natural protein)
- stoichiometry N [1]: 3
- stoichiometry N [2]: 3
